The values below come from publication PMC12671738.

Values joined by “and” are separate entries in the source; they are usually repeats but may differ in a detail not shown here. Identical values can stand only once.

Test [1] addresses p33 protein of citrus tristeza virus (CTV) (citrus tristeza virus). In words: SDS-PAGE and western blot of SDS-resistant oligomers; p33 immunoprecipitated from N. benthamiana leaf lysate with anti-p33 antibody on protein A magnetic beads, eluted in SDS loading buffer with 100 mM DTT and 8 M urea at 70 °C; blot with anti-p33 antibody. (A western blot detects proteins with antibodies after separation by electrophoresis.)

For test [2] the target is unchanged. In words: SDS-PAGE and western blot of SDS-resistant oligomers; crude extract: leaf discs of agroinfiltrated N. benthamiana macerated directly in SDS loading buffer with 8 M urea; blot with anti-p33 antibody; empty vector as control.

As for “p33 protein of citrus tristeza virus (CTV) (natural protein)”, the stoichiometry N (commonly a count of units in the complex or per binding partner) is 2 and 4 in test [1]; 2 and 4 in test [2].
